Laboratory results taken from the supplement of paper PMC10567573.

B1: ZBTB22 (parent)
chain: HTGLKPYECGVCAKKFMWRDSFMR

Variants of: B1
Experiment: protein stability index of a GFP-peptide fusion (GPS, HEK-293T) (PSI 1-6); higher = more stable
Settings: c terminus: a fixed tail appended
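Also: lentivirally expressed fusions sorted by FACS into six bins by GFP to DsRed ratio, PSI derived from sequencing read proportions per bin multiplied by bin number.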

Variant | protein stability index
HTGLKPYECGVTAKKFMWRDSFMR [C12T] | 2.56
HTGLKPYECGVPAKKFMWRDSFMR [C12P] | 1.73
HTGLKPYECGVNAKKFMWRDSFMR [C12N] | 2.56
HTGLKPYECGVEAKKFMWRDSFMR [C12E] | 3.07
HTGLKPYECGVKAKKFMWRDSFMR [C12K] | 2.58
HTGLKPYECGVDAKKFMWRDSFMR [C12D] | 1.12
HTGLKPYECGVCAKKVMWRDSFMR [F16V] | 1.95
HTGLKPYECGVCAKKPMWRDSFMR [F16P] | 3
HTGLKPYECGVCAKKSMWRDSFMR [F16S] | 3.33
HTGLKPYECGVCAKKDMWRDSFMR [F16D] | 2.45
HTGLKPYECGVCAKKRMWRDSFMR [F16R] | 2.1
HTGLKPYECGVCAKKHMWRDSFMR [F16H] | 1.6
HTGLKPYECGVCAKKMMWRDSFMR [F16M] | 2.46
HTGLKPYECGVCAKKAMWRDSFMR [F16A] | 1.1
HTGLKPYECGVCAKKYMWRDSFMR [F16Y] | 3.36
HTGLKPYECGVCAKKEMWRDSFMR [F16E] | 1.31
HTGLKPYECGVCAKKCMWRDSFMR [F16C] | 2.57
HTGLKPYECGVCAKKIMWRDSFMR [F16I] | 1.6
HTGLKPYECGVCAKKQMWRDSFMR [F16Q] | 2.16
HTGLKPYECGVCAKKKMWRDSFMR [F16K] | 1.32
HTGLKPYECGVCAKKNMWRDSFMR [F16N] | 1.39
HTGLKPYECGVCAEKFMWRDSFMR [K14E] | 1.9
HTGLKPYECGVCAAKFMWRDSFMR [K14A] | 1.26
HTGLKPYECGVCAPKFMWRDSFMR [K14P] | 1.21

Variant | protein stability index
HTGLKPYECGVCAWKFMWRDSFMR [K14W] | 2.78
HTGLKPYECGVCAFKFMWRDSFMR [K14F] | 1.99
HTGLKPYECGVCALKFMWRDSFMR [K14L] | 1.82
HTGLKPYECGVCADKFMWRDSFMR [K14D] | 1.91
HTGLKPYECGVCAQKFMWRDSFMR [K14Q] | 2.53
HTGLKPYECGVCATKFMWRDSFMR [K14T] | 2.19
HTGLKPYECGVCACKFMWRDSFMR [K14C] | 2.55
HTGLKPYECGVCAYKFMWRDSFMR [K14Y] | 3.07
HTGLKPYECGVCAIKFMWRDSFMR [K14I] | 1.66
HTGLKPYECGVCAKIFMWRDSFMR [K15I] | 1.77
HTGLKPYECGVCAKGFMWRDSFMR [K15G] | 2.95
HTGLKPYECGVCAKHFMWRDSFMR [K15H] | 3.5
HTGLKPYECGVCAKRFMWRDSFMR [K15R] | 2.86
HTGLKPYECGVCAKMFMWRDSFMR [K15M] | 2.88
HTGLKPYECGVCAKLFMWRDSFMR [K15L] | 1.52
HTGLKPYECGVCAKSFMWRDSFMR [K15S] | 2.12
HTGLKPYECGVCAKDFMWRDSFMR [K15D] | 2.52
HTGLKPYECGVCAKFFMWRDSFMR [K15F] | 2
HTGLKPYECGVCAKCFMWRDSFMR [K15C] | 2.1
HTGLKPYECGVCAKVFMWRDSFMR [K15V] | 1.77
HTGLKPYECGVCAKWFMWRDSFMR [K15W] | 1.79
HTGLKPYECGVCAKYFMWRDSFMR [K15Y] | 2.76
HTGLKPYECGVCAKNFMWRDSFMR [K15N] | 2.26
HTGLKPYECGVCAKQFMWRDSFMR [K15Q] | 2.05

Variant | protein stability index
HTGLKPYECGVCAKTFMWRDSFMR [K15T] | 1.61
HTGLKPYECGVCAKKFMWQDSFMR [R19Q] | 2.03
HTGLKPYECGVCAKKFMWNDSFMR [R19N] | 2.29
HTGLKPYECGVCAKKFMWTDSFMR [R19T] | 2.13
HTGLKPYECGVCAKKFMWIDSFMR [R19I] | 1.71
HTGLKPYECGVCAKKFMWHDSFMR [R19H] | 2.12
HTGLKPYECGVCAKKFMWEDSFMR [R19E] | 1.58
HTGLKPYECGVCAKKFMWSDSFMR [R19S] | 2.12
HTGLKPYECGVCAKKFMWFDSFMR [R19F] | 1.55
HTGLKPYECGVCAKKFMWMDSFMR [R19M] | 2.01
HTGLKPYECGVCAKKFMWADSFMR [R19A] | 2.81
HTGLKPYECGVCAKKFMWKDSFMR [R19K] | 2.88
HTGLKPYECGVCAKKFMWDDSFMR [R19D] | 1.88
HTGLKPYECGVCAKKFMWWDSFMR [R19W] | 1.77
HTGLKPYECGVCAKKFMWCDSFMR [R19C] | 1.59
HTGLKPYECGVCAKKFMWYDSFMR [R19Y] | 2.06
HTGLKPYECGVCAKKFMWPDSFMR [R19P] | 4.1
HTGLKPYECGVCAKKFMWLDSFMR [R19L] | 2.82
HTGLKPYECCVCAKKFMWRDSFMR [G10C] | 2.58
HTGLKPYECHVCAKKFMWRDSFMR [G10H] | 1.96
HTGLKPYECAVCAKKFMWRDSFMR [G10A] | 2.82
HTGLKPYECEVCAKKFMWRDSFMR [G10E] | 2.44
HTGLKPYECTVCAKKFMWRDSFMR [G10T] | 1.84
HTGLKPYECNVCAKKFMWRDSFMR [G10N] | 2.62

Variant | protein stability index
HTGLKPYECFVCAKKFMWRDSFMR [G10F] | 2.12
HTGLKPYECSVCAKKFMWRDSFMR [G10S] | 1.47
HTGLKPYECYVCAKKFMWRDSFMR [G10Y] | 3.51
HTGLKPYECLVCAKKFMWRDSFMR [G10L] | 2.17
HTGLKPYECVVCAKKFMWRDSFMR [G10V] | 4.2
HTGLKPYECPVCAKKFMWRDSFMR [G10P] | 1.92
HTGLKPYECKVCAKKFMWRDSFMR [G10K] | 2.19
HTGLKPYECMVCAKKFMWRDSFMR [G10M] | 1.64
HTGLKPYECDVCAKKFMWRDSFMR [G10D] | 1.98
HTGLKPYECQVCAKKFMWRDSFMR [G10Q] | 2.19
HTGLKPYECRVCAKKFMWRDSFMR [G10R] | 2.01
HTGLKPYECGVCLKKFMWRDSFMR [A13L] | 2.64
HTGLKPYECGVCQKKFMWRDSFMR [A13Q] | 1.55
HTGLKPYECGVCGKKFMWRDSFMR [A13G] | 1.54
HTGLKPYECGVCKKKFMWRDSFMR [A13K] | 1.22
HTGLKPYECGVCIKKFMWRDSFMR [A13I] | 2.5
HTGLKPYECGVCWKKFMWRDSFMR [A13W] | 3.78
HTGLKPYECGVCHKKFMWRDSFMR [A13H] | 2.56
HTGLKPYECGVCEKKFMWRDSFMR [A13E] | 1.56
HTGLKPYECGVCDKKFMWRDSFMR [A13D] | 1
HTGLKPYECGVCMKKFMWRDSFMR [A13M] | 3.7
HTGLKPYECGVCFKKFMWRDSFMR [A13F] | 3.02
